Where two headings read alike, the source gives them in different places.
Assays:
Assay in all cases: enzyme inhibition kinetics
[1] = molecular target: T1, ADAMTS4-1 (full-length human ADAMTS-4, C-terminal FLAG-tag) (human, UniProt O75173 213-837)
T1 sequence (looked up): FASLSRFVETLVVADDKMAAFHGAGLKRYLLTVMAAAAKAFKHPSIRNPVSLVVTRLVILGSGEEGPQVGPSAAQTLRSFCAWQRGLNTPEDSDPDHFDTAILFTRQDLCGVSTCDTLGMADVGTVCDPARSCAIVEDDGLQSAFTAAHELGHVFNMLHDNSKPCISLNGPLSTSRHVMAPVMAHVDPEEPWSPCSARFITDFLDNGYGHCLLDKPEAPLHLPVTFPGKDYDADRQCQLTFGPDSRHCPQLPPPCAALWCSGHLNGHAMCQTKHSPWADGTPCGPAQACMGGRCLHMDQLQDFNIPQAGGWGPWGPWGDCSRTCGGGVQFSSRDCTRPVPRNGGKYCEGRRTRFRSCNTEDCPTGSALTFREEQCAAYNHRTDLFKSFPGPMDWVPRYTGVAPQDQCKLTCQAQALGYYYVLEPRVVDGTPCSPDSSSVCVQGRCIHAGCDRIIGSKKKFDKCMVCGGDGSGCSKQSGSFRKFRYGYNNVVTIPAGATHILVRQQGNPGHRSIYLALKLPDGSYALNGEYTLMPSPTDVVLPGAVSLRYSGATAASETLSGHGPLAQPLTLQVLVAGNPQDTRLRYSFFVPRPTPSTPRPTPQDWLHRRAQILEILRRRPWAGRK

[2] = molecular target: T2, ADAMTS4-4 (human ADAMTS-4 deletion mutant, C-terminal FLAG-tag) (human, UniProt O75173 213-519)
T2 sequence (looked up): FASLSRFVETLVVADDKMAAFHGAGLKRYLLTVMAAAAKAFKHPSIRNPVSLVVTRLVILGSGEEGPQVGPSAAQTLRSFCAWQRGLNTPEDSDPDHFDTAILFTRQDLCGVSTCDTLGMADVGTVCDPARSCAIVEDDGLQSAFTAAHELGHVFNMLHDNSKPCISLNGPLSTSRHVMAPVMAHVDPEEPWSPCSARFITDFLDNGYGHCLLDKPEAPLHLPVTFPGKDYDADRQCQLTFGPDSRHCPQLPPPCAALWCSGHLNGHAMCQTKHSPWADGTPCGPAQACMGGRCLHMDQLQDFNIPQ

[3] = molecular target: T1, ADAMTS4-1 (full-length human ADAMTS-4, …); remark: listed apart in the source
[4] = molecular target: T3, ADAMTS4-2 (human ADAMTS-4 deletion mutant, C-terminal FLAG-tag) (human, UniProt O75173 213-685)
T3 sequence (looked up): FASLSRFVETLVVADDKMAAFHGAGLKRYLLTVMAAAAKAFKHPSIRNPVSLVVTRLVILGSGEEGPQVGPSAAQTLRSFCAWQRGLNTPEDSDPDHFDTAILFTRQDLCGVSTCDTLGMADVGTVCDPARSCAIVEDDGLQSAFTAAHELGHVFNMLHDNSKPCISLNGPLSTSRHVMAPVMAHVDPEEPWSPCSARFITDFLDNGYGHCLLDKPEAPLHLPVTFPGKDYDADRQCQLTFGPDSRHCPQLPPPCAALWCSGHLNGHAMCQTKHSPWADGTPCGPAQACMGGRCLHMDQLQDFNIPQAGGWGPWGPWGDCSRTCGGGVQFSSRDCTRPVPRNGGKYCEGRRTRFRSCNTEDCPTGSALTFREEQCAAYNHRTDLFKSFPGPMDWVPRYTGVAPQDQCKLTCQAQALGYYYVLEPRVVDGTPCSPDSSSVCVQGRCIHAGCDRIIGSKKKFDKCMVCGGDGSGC

[5] = molecular target: T4, ADAMTS4-3 (human ADAMTS-4 deletion mutant, C-terminal FLAG-tag) (human, UniProt O75173 213-575)
T4 sequence (looked up): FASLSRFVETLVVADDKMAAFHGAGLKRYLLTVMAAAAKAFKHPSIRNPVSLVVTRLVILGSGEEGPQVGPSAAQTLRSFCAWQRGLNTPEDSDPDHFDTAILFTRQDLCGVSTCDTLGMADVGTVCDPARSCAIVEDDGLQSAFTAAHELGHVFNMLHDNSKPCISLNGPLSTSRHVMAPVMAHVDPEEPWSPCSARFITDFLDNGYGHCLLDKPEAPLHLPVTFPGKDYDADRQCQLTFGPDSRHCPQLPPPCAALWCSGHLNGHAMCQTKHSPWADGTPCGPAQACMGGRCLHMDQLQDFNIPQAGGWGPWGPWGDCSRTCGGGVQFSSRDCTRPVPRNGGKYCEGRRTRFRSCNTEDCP

Ki [1]: 0.39 nM
Ki [2]: 0.38 nM
Ki [3]: 0.22 nM
Ki [4]: 0.22 nM
Ki [5]: 0.4 nM
B1: FLAG-tagged glycosylated human TIMP-3 (full-length tissue inhibitor of metalloproteinases 3), expressed in HEK293 (natural protein, UniProt P35625 24-211, looked up)
chain: CTCSPSHPQDAFCNSDIVIRAKVVGKKLVKEGPFGTLVYTIKQMKMYRGFTKMPHVQYIHTEASESLCGLKLEVNKYQYLLTGRVYDGKMYTGLCNFVERWDQLTLSQRKGLNYRYHLGCNCKIKSCYYLPCFVTSKNECLWTDMLSNFGYPGYQSKHYACIRQKGGYCSWYRGWAPPDKSIINATDP
modifications: glycosylated (only the 27 kDa glycosylated form remained after purification; single N-glycosylation site in the C-terminal domain)

— publication PMC2835468 (Matrix biology : journal of the International Society for …, 2009)
